Here are results for two molecules from patent US20100215619A1.

A word on the IC50: it is the point on the concentration scale where inhibition reaches its midpoint. A higher IC50 goes with a need for much substance.

One assay concerns the target HLA-DRB1*0101 (human). The assay can be described thus: competition binding. The conditions noted are these: modification not given.
Another assay concerns the target HLA-DRB4*0101 (human). In words: competition binding. The conditions noted are these: modification not given.

Turning to GTLRGYYNQSEAGSH [p15], the IC50 in the assay with HLA-DRB1*0101 (human) was determined as 0.456 µM. On to VGYVDDTQFVRFDSD [p6], for which, in the assay with HLA-DRB4*0101 (human), the IC50 came out at 90 µM.
